The record followed here is US6699969 (University of California, dated 2004).

The chains are these.
B3: in vitro translated S. purpuratus p60 katanin with 37 amino acid N-terminal S-Tag (enzyme)
chain: MSVDEICENTKMGREYALLGNYETSLVYYQGVLQQIQKLLTSVHEPQRKHQWQTIRQELSQEYEHVKNITKTLNGFKSEPAAPEPAPNHGRAAPFSHHQHAAKPAAAEPARDPDVWPPPTPVDHRPSPPYQRAARKDPPRRSEPSKPANRAPGNDRGGRGPSDRRGDARSGGGGRGGARGSDKDKNRGGKSDKDKKAPSGEEGDEKKFDPAGYDKDLVENLERDIVQRNPNVHWADIAGLTEAKRLLEEAVVLPLWMPDYFKGIRRPWKGVLMVGPPGTGKTMLAKAVATECGTTFFNVSSASLTSKYHGESEKLVRLLFEMARFYAPSTIFIDEIDSICSKRGTGSEHEASRRVKSELLIQMDGVSGPSAGEESSKMVMVLAATNFPWDIDEALRRRLEKRIYIPLPEIDGREQLLRINLKEVPLADDIDLKSIAEKMDGYSGADITNVCRDASMMAMRRRIQGLRPEEIRHIPKEELNQPSTPADFLLALQKVSKSVGKEDLVKYMAWMEEFGSV
notes: Made in a rabbit reticulocyte transcription-translation reaction; not shown: 37 amino acid N-terminal S-Tag from pCITE-4a+

Data set [1] addresses B3. Description: in vitro co-translation, immunoprecipitation with anti-p60 antibody, S-protein HRP blot. The method, then:
(§1) In vitro synthesis of proteins directly from plasmid DNAs was accomplished using the Single Tube Protein System 2, T7 (Novagen). […] For immunoprecipitations, lysates were incubated on ice with Pansorbin (Calbiochem)-antibody complexes, washed in NET buffer (50 mM Tris-Cl (pH 7.5), 150 mM NaCl, 0.1% Nonidet P-40, 1 mM EDTA (pH 8.0), 0.25% gelatin 0.02% sodium azide), then resuspended in SDS-PAGE sample buffer. In vitro translation products in both the pellets and supernatants from the immunoprecipitations were resolved by SDS-PAGE, transferred to nitrocellulose, probed with S-protein HRP conjugate (Novagen) and detected by chemiluminescence.

Data set [2] deals with the molecule itself. Briefly: rotary-shadowing electron microscopy of recombinant p60.
The target of data set [3] is T1, baculovirus-expressed S. purpuratus katanin p80 subunit with N-terminal His(6) tag (Strongylocentrotus purpuratus, UniProt O61585 1-690).
T1 construct: Expressed in Sf9 cells and purified on Ni-NTA; GenBank AF052433; also called p80 katanin; recombinant p80
T1 sequence: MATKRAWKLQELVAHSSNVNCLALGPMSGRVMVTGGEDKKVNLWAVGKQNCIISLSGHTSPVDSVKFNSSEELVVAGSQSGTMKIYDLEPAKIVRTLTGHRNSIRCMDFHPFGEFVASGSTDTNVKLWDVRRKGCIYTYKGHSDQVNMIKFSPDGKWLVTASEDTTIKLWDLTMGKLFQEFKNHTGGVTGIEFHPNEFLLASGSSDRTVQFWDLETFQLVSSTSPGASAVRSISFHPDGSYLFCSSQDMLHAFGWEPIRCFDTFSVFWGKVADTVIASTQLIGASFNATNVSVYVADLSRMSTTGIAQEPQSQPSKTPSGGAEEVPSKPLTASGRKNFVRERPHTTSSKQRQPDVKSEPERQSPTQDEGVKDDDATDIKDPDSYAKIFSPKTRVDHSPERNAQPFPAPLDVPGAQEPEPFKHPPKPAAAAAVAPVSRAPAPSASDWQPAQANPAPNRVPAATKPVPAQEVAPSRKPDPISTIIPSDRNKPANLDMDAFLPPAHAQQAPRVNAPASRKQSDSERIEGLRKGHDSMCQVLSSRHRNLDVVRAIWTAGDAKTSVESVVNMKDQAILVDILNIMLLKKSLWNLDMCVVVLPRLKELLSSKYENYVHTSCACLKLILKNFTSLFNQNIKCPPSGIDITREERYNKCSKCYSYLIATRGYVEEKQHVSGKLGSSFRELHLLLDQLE
Briefly: co-expression in insect cells, metal affinity purification, Coomassie staining. The method, then:
6×His-tagged katanin subunits were purified from lysates of baculovirus-infected insect cells by binding to Ni^2+-NTA Superflow followed by elution with imidazole, as described in the Experimental Procedures. […] Proteins bound to the resin were analyzed by SDS-PAGE followed by staining with Coomassie.
Deciphering the roles of the two katanin subunits is essential for understanding the enzyme's mechanism and biological activities. […] We therefore sought to express the two subunits together and separately and then test their enzymatic activities.

Data set [4] concerns the target T2, p80 delta 560-690, S. purpuratus p80 katanin deletion lacking the C-terminal 130 amino acids, with N-terminal … (Strongylocentrotus purpuratus, UniProt O61585 1-559).
T2 construct: Residues 560-690 deleted by the construct's name; The text says 'C-terminal 130 amino acids', but 560-690 counts 131 residues; also called 560-690 deletion derivative of p80; not shown: 37 amino acid N-terminal S-Tag from pCITE-4a+
T2 sequence: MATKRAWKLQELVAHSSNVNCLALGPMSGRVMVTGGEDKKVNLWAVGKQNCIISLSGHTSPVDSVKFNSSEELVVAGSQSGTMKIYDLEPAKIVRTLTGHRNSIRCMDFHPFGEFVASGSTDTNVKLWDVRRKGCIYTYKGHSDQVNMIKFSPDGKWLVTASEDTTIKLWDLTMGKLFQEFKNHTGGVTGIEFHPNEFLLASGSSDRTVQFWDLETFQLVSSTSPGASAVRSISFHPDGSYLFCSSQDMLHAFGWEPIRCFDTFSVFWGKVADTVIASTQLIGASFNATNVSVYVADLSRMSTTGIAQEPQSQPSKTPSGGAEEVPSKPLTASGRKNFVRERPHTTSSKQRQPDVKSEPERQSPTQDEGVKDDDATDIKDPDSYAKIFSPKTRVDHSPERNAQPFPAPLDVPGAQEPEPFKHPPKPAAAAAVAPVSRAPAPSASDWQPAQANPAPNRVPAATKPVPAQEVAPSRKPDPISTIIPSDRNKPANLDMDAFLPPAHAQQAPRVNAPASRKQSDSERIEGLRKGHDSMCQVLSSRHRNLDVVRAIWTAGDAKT
Description: in vitro co-translation, immunoprecipitation with anti-p60 antibody, S-protein HRP blot. The method, then:
as §1

B1: p80 delta 303-690, C-terminal truncation of S. purpuratus p80 katanin containing only the WD40 domain, with N-terminal S-Tag (other)
chain: MATKRAWKLQELVAHSSNVNCLALGPMSGRVMVTGGEDKKVNLWAVGKQNCIISLSGHTSPVDSVKFNSSEELVVAGSQSGTMKIYDLEPAKIVRTLTGHRNSIRCMDFHPFGEFVASGSTDTNVKLWDVRRKGCIYTYKGHSDQVNMIKFSPDGKWLVTASEDTTIKLWDLTMGKLFQEFKNHTGGVTGIEFHPNEFLLASGSSDRTVQFWDLETFQLVSSTSPGASAVRSISFHPDGSYLFCSSQDMLHAFGWEPIRCFDTFSVFWGKVADTVIASTQLIGASFNATNVSVYVADLSRMS
notes: not shown: 37 amino acid N-terminal S-Tag from pCITE-4a+
With B1, the binding result in data set [1] is “no binding”.

B2: baculovirus-expressed S. purpuratus katanin p60 subunit with N-terminal His(6) tag (enzyme, not shown: small tags and cut ends)
chain: MSVDEICENTKMGREYALLGNYETSLVYYQGVLQQIQKLLTSVHEPQRKHQWQTIRQELSQEYEHVKNITKTLNGFKSEPAAPEPAPNHGRAAPFSHHQHAAKPAAAEPARDPDVWPPPTPVDHRPSPPYQRAARKDPPRRSEPSKPANRAPGNDRGGRGPSDRRGDARSGGGGRGGARGSDKDKNRGGKSDKDKKAPSGEEGDEKKFDPAGYDKDLVENLERDIVQRNPNVHWADIAGLTEAKRLLEEAVVLPLWMPDYFKGIRRPWKGVLMVGPPGTGKTMLAKAVATECGTTFFNVSSASLTSKYHGESEKLVRLLFEMARFYAPSTIFIDEIDSICSKRGTGSEHEASRRVKSELLIQMDGVSGPSAGEESSKMVMVLAATNFPWDIDEALRRRLEKRIYIPLPEIDGREQLLRINLKEVPLADDIDLKSIAEKMDGYSGADITNVCRDASMMAMRRRIQGLRPEEIRHIPKEELNQPSTPADFLLALQKVSKSVGKEDLVKYMAWMEEFGSV
notes: Expressed in Sf9 cells and purified on Ni-NTA; also called p60 katanin; recombinant p60
B2: the binding result in data set [2] is given as “binds”. Further, the “p60:p80 molar ratio in the co-purified protein” value in data set [3] was roughly 0.9 mol p80 per 1.0 mol p60. As for B3, in data set [4], the binding result is given as “no binding”.
